According to the supplement of paper PMC10567573:

B1: C2orf65 (parent)
chain: QLDWDELETNQQHFHALCHSLLVS
B2: SETD8 (parent)
chain: GKQAPRKKAQGKTQQNRKLTDFYP

Variants of: B1
Assay: protein stability index of a GFP-peptide fusion (GPS, HEK-293T) (PSI 1-6); higher = more stable
Conditions: c terminus: a fixed tail appended
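Note: lentivirally expressed fusions sorted by FACS into six bins by GFP to DsRed ratio, PSI derived from sequencing read proportions per bin multiplied by bin number.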

Row | Variant | protein stability index
1 | L2R | 2.25
2 | L2C | 1.95
3 | L2N | 2.31
4 | L2H | 2.51
5 | L2G | 2.33
6 | L2K | 2.4
7 | L2E | 2.97
8 | L2P | 3.02
9 | L2D | 2.55
10 | L2W | 1.63
11 | L2T | 2.02
12 | L2Q | 2.42
13 | L2A | 2.68
14 | L2V | 2.31
15 | L2M | 1.94
16 | L2I | 1.78
17 | L2Y | 1.64
18 | L2F | 1.98
19 | L2S | 2.17
20 | W4S | 3.2
21 | W4Q | 3.35
22 | W4V | 3.11
23 | W4Y | 2.56
24 | W4N | 2.78
25 | W4D | 3.18

Row | Variant | protein stability index
26 | W4M | 2.98
27 | W4R | 2.77
28 | W4C | 3.19
29 | W4G | 2.99
30 | W4T | 3.14
31 | W4I | 3.03
32 | W4F | 2.54
33 | W4L | 2.4
34 | W4K | 2.85
35 | W4A | 2.93
36 | W4P | 2.02
37 | W4H | 2.69
38 | L7F | 2.13
39 | L7M | 1.94
40 | L7I | 1.82
41 | L7S | 2.8
42 | L7Y | 2.27
43 | L7H | 2.18
44 | L7D | 3.63
45 | L7E | 3.03
46 | L7Q | 2.79
47 | L7G | 2.6
48 | L7R | 2.16
49 | L7N | 2.84
50 | L7K | 2.79

Row | Variant | protein stability index
51 | L7C | 2.5
52 | L7T | 2.16
53 | L7V | 2.36
54 | L7A | 2.33
55 | L7W | 1.33
56 | L7P | 2.84
57 | D3P | 2.07
58 | D3T | 2.59
59 | D3A | 2.27
60 | D3H | 1.92
61 | D3R | 1.85
62 | D3F | 1.93
63 | D3K | 1.83
64 | D3E | 2.27
65 | D3Y | 1.47
66 | D3C | 1.85
67 | D3M | 1.05
68 | D3S | 1.57
69 | D3V | 1.73
70 | D3G | 2.85
71 | D3Q | 2.1
72 | D3L | 1.45
73 | D3N | 2.01
74 | D3W | 3.03
75 | D3I | 2.23

Row | Variant | protein stability index
76 | Q1V | 2.5
77 | Q1L | 1.64
78 | Q1S | 2.21
79 | Q1K | 1.75
80 | Q1G | 2.55
81 | Q1E | 2.29
82 | Q1P | 2.48
83 | Q1N | 2.25
84 | Q1Y | 1.68
85 | Q1F | 1.81
86 | Q1R | 1.96
87 | Q1D | 2.67
88 | Q1T | 2.06
89 | Q1A | 2.11
90 | Q1C | 1.65
91 | Q1W | 1.51
92 | Q1H | 2.22
93 | Q1M | 2.46
94 | Q1I | 1.5
95 | E6P | 2.5
96 | E6G | 2.13
97 | E6K | 1.46
98 | E6S | 1.66
99 | E6I | 1.81
100 | E6D | 1.9

Row | Variant | protein stability index
101 | E6N | 1.79
102 | E6R | 1.96
103 | E6W | 2.55
104 | E6L | 2.34
105 | E6T | 1.82
106 | E6F | 3.45
107 | E6C | 1.95
108 | E6M | 1.83
109 | E6V | 2.32
110 | E6Y | 1.44
111 | E6H | 1.57
112 | E6Q | 1.84
113 | E6A | 2.04
114 | E8A | 1.57
115 | E8M | 2.73
116 | E8P | 1.87
117 | E8I | 2.01
118 | E8N | 2.07
119 | E8R | 1.99
120 | E8D | 2.11
121 | E8Q | 1.89
122 | E8F | 1.57
123 | E8G | 1.64
124 | E8S | 1.67
125 | E8K | 1.39

Row | Variant | protein stability index
126 | E8L | 2.31
127 | E8H | 1.95
128 | E8C | 1.59
129 | D5H | 2.04
130 | D5F | 2.47
131 | D5A | 2.01
132 | D5W | 1.18
133 | D5N | 1.49
134 | D5E | 2.54
135 | D5K | 2
136 | D5G | 2.07
137 | D5Q | 1.57
138 | D5L | 1.22
139 | D5C | 1.55
140 | D5I | 1.58
141 | D5V | 1.66
142 | D5R | 1.95
143 | D5M | 1.95
144 | D5T | 2.18
145 | D5Y | 2.31
146 | D5S | 1.83
147 | D5P | 2.34

Variants of: B2
Assay: as above
Conditions: c terminus: a fixed tail appended

Row | Variant | protein stability index
148 | N16V | 3.57
149 | N16K | 2.91
150 | N16E | 3.65
151 | N16M | 3.37
152 | N16I | 3.13
153 | N16Y | 1.96
154 | N16A | 3.02
155 | N16S | 4.04
156 | N16T | 2.53
157 | N16P | 2.45
158 | N16F | 2.68
159 | P24M | 4.09
160 | P24G | 4.31
161 | P24A | 2.66
162 | P24H | 4.02
163 | P24Q | 3.65
164 | P24C | 3.62
165 | P24L | 3.56
166 | P24Y | 2.73
167 | P24W | 1.91
168 | P24F | 3.48
169 | P24S | 3.43
170 | P24K | 3.09
171 | P24N | 2.18

Row | Variant | protein stability index
172 | P24I | 3.44
173 | P24R | 2.67
174 | P24D | 4.33
175 | L19Y | 3.32
176 | L19K | 4
177 | L19W | 2.97
178 | L19H | 3.77
179 | L19S | 4.39
180 | L19E | 4.62
181 | L19D | 5.33
182 | L19Q | 3.84
183 | L19F | 3.27
184 | L19G | 3.91
185 | L19R | 4.33
186 | L19A | 4.54
187 | L19N | 4.73
188 | T13D | 3.09
189 | T13G | 3.35
190 | T13A | 3.48
191 | T13I | 3.28
192 | T13M | 2.16
193 | T13V | 3.39
194 | T13F | 2.37
195 | T13Q | 3.93

Row | Variant | protein stability index
196 | T13N | 2.87
197 | T13R | 3.82
198 | T13E | 3.83
199 | T13S | 2.04
200 | K12T | 3.32
201 | K12D | 2.51
202 | K12P | 2.51
203 | K12I | 2.85
204 | K12N | 3.07
205 | K12E | 3.66
206 | K12A | 2.76
207 | K12G | 3.37
208 | K12R | 2.99
209 | K12L | 3.21
210 | K12F | 4.09
211 | K12W | 3.08
212 | K12C | 2.19
213 | K12Y | 3.42
214 | T20K | 3.54
215 | T20D | 4.5
216 | T20P | 4.41
217 | T20E | 4.22
218 | T20Q | 4.11
219 | T20I | 3.29

Row | Variant | protein stability index
220 | T20C | 2.54
221 | T20F | 3.06
222 | T20H | 3.94
223 | T20M | 4.3
224 | T20N | 3.61
225 | D21E | 1.79
226 | D21R | 3.46
227 | D21N | 3.24
228 | D21M | 3.46
229 | D21H | 3.57
230 | D21Y | 2.97
231 | D21T | 3.9
232 | D21K | 3.91
233 | D21P | 3.83
234 | D21V | 3.21
235 | D21F | 2.59
236 | D21A | 3.03
237 | D21I | 3.13
238 | D21C | 4.41
239 | D21L | 3.53
240 | F22T | 4.57
241 | F22P | 4.98
242 | F22A | 4.61
243 | F22G | 4.75

Row | Variant | protein stability index
244 | F22I | 4.13
245 | F22H | 4.13
246 | F22L | 4.51
247 | F22K | 4.97
248 | F22M | 4.7
249 | F22D | 3.15
250 | F22E | 4.61
251 | F22Q | 4.17
252 | F22R | 3.6
253 | F22S | 4.69
254 | F22N | 4.77
255 | R17L | 2.32
256 | R17F | 2.88
257 | R17E | 3.13
258 | R17K | 2.59
259 | R17T | 2.61
260 | R17C | 2.96
261 | R17N | 3.34
262 | R17D | 3.8
263 | R17P | 3.06
264 | R17G | 3.91
265 | R17I | 3.68
266 | R17H | 2.88
267 | Y23C | 4.28

Row | Variant | protein stability index
268 | Y23T | 5.12
269 | Y23V | 4.05
270 | Y23Q | 4.04
271 | Y23K | 5.33
272 | Y23E | 4.51
273 | Y23N | 4.83
274 | Y23G | 4.34
275 | Y23S | 4.39
276 | Y23I | 4.07
277 | Y23L | 3.96
278 | Y23H | 4.93
279 | Y23P | 4.44
280 | Y23D | 4.64
281 | Q14G | 2.52
282 | Q14E | 3.41
283 | Q14I | 3.11
284 | Q14T | 3.4
285 | Q14S | 1.89
286 | Q14V | 3.07
287 | Q14Y | 3.4
288 | Q14F | 1.92
289 | Q14R | 1.85
290 | Q14A | 2.81
291 | Q14W | 3.37

Row | Variant | protein stability index
292 | Q14H | 1.57
293 | Q14P | 4.36
294 | Q14C | 2.37
295 | Q14M | 3.64
296 | Q14D | 3.06
297 | G11N | 3.6
298 | G11A | 4.17
299 | G11M | 3.29
300 | G11Y | 3.21
301 | G11P | 3.46
302 | G11K | 2.91
303 | G11T | 2.84
304 | G11S | 3.55
305 | G11E | 3.42
306 | G11D | 2.94
307 | G11I | 3.73
308 | G11R | 2.66
309 | G11L | 3.27
310 | G11H | 3.56
311 | Q15L | 2.76
312 | Q15N | 3.07
313 | Q15S | 3.26
314 | Q15D | 3.71
315 | Q15C | 2.15

Row | Variant | protein stability index
316 | Q15H | 3.76
317 | K18F | 3.85
318 | K18P | 2.96
319 | K18I | 4.29
320 | K18T | 3.05
321 | K18C | 2.89
322 | K18M | 2.06
323 | K18Q | 3.45
324 | K18Y | 2.76
325 | K18H | 2.69
326 | K18D | 4.87
327 | K18L | 2.56
328 | K18E | 3.2
329 | K18S | 3.51
330 | K18N | 4.19
331 | K18A | 3.15
332 | K18V | 3.75
333 | Q10Y | 3.22
334 | Q10W | 2.08
